# Results taken from article PMC11759358.
# Target: Flag::Hth (Homothorax, Flag-tagged) (Drosophila) (UniProt O46339)
# Assay: co-IP; SF9 extracts with Flag::Hth, His::Exd and HA::Abd-B (wild type or W>A) mixed and incubated on anti-Flag resin; lysis solution 140 mM KCl, 5% glycerol, 2.5% MgCl2, 25 mM Hepes pH 7.8, 10 mM imidazole; Western blot by the tags
# UniProt O46339, sequence (O46339 whole entry): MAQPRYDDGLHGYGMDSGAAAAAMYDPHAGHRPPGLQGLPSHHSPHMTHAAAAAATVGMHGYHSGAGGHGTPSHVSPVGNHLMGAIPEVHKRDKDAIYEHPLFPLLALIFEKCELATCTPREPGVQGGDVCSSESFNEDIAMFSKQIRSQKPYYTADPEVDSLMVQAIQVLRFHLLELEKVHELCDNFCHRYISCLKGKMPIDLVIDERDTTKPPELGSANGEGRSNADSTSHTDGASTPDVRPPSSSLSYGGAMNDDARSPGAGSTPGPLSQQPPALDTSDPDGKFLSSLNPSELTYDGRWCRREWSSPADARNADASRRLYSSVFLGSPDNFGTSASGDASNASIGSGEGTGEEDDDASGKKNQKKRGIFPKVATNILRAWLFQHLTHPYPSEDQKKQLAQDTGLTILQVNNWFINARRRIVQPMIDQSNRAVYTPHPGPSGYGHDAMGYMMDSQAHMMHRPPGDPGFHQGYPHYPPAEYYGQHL
substance,measurement,value
"HA::Abd-B^W (Abdominal-B with the Tryptophan of the HX-like motif mutated to Alanine, HA-tagged) (from UniProt P09087 1-493)",percent reduction of co-precipitated protein against wild-type Abd-B,24%
